Assay results as given in paper PMC11574045, “A cofactor-induced repressive type of transcription factor condensation can be induced by synthetic peptides to suppress tumorigenesis” (The EMBO Journal, 2024).

B1: SRY (protein, UniProt Q05738 1-392, looked up)
Sex-determining region Y …: MEGHVKRPMNAFMVWSRGERHKLAQQNPSMQNTEISKQLGCRWKSLTEAEKRPFFQEAQRLKILHREKYPNYKYQPHRRAKVSQRSGILQPAVASTKLYNLLQWDRNPHAITYRQDWSRAAHLYSKNQQSFYWQPVDIPTGHLQQQQQQQQQQQFHNHHQQQQQFYDHHQQQQQQQQQQQQFHDHHQQKQQFHDHHQQQQQFHDHHHHHQEQQFHDHHQQQQQFHDHQQQQQQQQQQQFHDHHQQKQQFHDHHHHQQQQQFHDHQQQQQQFHDHQQQQHQFHDHPQQKQQFHDHPQQQQQFHDHHHQQQQKQQFHDHHQQKQQFHDHHQQKQQFHDHHQQQQQFHDHHQQQQQQQQQQQQQFHDQQLTYLLTADITGWKGIKHCTGPDPEPF
B2: SSX5 (protein, UniProt O60225 1-188, looked up)
Protein SSX5: MNGDDAFVRRPRVGSQIPEKMQKAFDDIAKYFSEKEWEKMKASEKIIYVYMKRKYEAMTKLGFKATLPPFMRNKRVADFQGNDFDNDPNRGNQVEHPQMTFGRLQGIFPKITPEKPAEEGNDSKGVPEASGPQNNGKQLRPSGKLNTSEKVNKTSGPKRGKHAWTHRVRERKQLVIYEEISDPQEDDE
B3: BHLHA9 (protein, UniProt Q7RTU4 1-235, looked up)
Class A basic …: MLRGAPGLGLTARKGAEDSAEDLGGPCPEPGGDSGVLGANGASCSRGEAEEPAGRRRARPVRSKARRMAANVRERKRILDYNEAFNALRRALRHDLGGKRLSKIATLRRAIHRIAALSLVLRASPAPRGPCGHLECHGPAARGDTGDTGASPPPPAGPSLARPDAARPSVPSAPRCASCPPHAPLARPSAVAEGPGLAQASGGSWRRCPGASSAGPPPWPRGYLRSAPGMGHPRS
B4: STAT5A (protein, UniProt P42229 1-794, looked up)
Signal transducer and …: MAGWIQAQQLQGDALRQMQVLYGQHFPIEVRHYLAQWIESQPWDAIDLDNPQDRAQATQLLEGLVQELQKKAEHQVGEDGFLLKIKLGHYATQLQKTYDRCPLELVRCIRHILYNEQRLVREANNCSSPAGILVDAMSQKHLQINQTFEELRLVTQDTENELKKLQQTQEYFIIQYQESLRIQAQFAQLAQLSPQERLSRETALQQKQVSLEAWLQREAQTLQQYRVELAEKHQKTLQLLRKQQTIILDDELIQWKRRQQLAGNGGPPEGSLDVLQSWCEKLAEIIWQNRQQIRRAEHLCQQLPIPGPVEEMLAEVNATITDIISALVTSTFIIEKQPPQVLKTQTKFAATVRLLVGGKLNVHMNPPQVKATIISEQQAKSLLKNENTRNECSGEILNNCCVMEYHQATGTLSAHFRNMSLKRIKRADRRGAESVTEEKFTVLFESQFSVGSNELVFQVKTLSLPVVVIVHGSQDHNATATVLWDNAFAEPGRVPFAVPDKVLWPQLCEALNMKFKAEVQSNRGLTKENLVFLAQKLFNNSSSHLEDYSGLSVSWSQFNRENLPGWNYTFWQWFDGVMEVLKKHHKPHWNDGAILGFVNKQQAHDLLINKPDGTFLLRFSDSEIGGITIAWKFDSPERNLWNLKPFTTRDFSIRSLADRLGDLSYLIYVFPDRPKDEVFSKYYTPVLAKAVDGYVKPQIKQVVPEFVNASADAGGSSATYMDQAPSPAVCPQAPYNMYPQNPDHVLDQDGEFDLDETMDVARHVEELLRRPMDSLDSRLSPPAGLFTSARGSLS
B5: SSX3 (protein, UniProt Q99909 1-188, looked up)
Protein SSX3: MNGDDTFARRPTVGAQIPEKIQKAFDDIAKYFSKEEWEKMKVSEKIVYVYMKRKYEAMTKLGFKAILPSFMRNKRVTDFQGNDFDNDPNRGNQVQRPQMTFGRLQGIFPKIMPKKPAEEGNVSKEVPEASGPQNDGKQLCPPGKPTTSEKINMISGPKRGEHAWTHRLRERKQLVIYEEISDPEEDDE
B6: SOX7 (protein, UniProt Q9BT81 1-388, looked up)
Transcription factor SOX-7: MASLLGAYPWPEGLECPALDAELSDGQSPPAVPRPPGDKGSESRIRRPMNAFMVWAKDERKRLAVQNPDLHNAELSKMLGKSWKALTLSQKRPYVDEAERLRLQHMQDYPNYKYRPRRKKQAKRLCKRVDPGFLLSSLSRDQNALPEKRSGSRGALGEKEDRGEYSPGTALPSLRGCYHEGPAGGGGGGTPSSVDTYPYGLPTPPEMSPLDVLEPEQTFFSSPCQEEHGHPRRIPHLPGHPYSPEYAPSPLHCSHPLGSLALGQSPGVSMMSPVPGCPPSPAYYSPATYHPLHSNLQAHLGQLSPPPEHPGFDALDQLSQVELLGDMDRNEFDQYLNTPGHPDSATGAMALSGHVPVSQVTPTGPTETSLISVLADATATYYNSYSVS
B7: SPZ1 (protein, UniProt Q9BXG8 1-430, looked up)
Spermatogenic leucine zipper …: MASSAKSAEMPTISKTVNPTPDPHQEYLDPRITIALFEIGSHSPSSWGSLPFLKNSSHQVTEQQTAQKFNNLLKEIKDILKNMAGFEEKITEAKELFEETNITEDVSAHKENIRGLDKINEMLSTNLPVSLAPEKEDNEKKQEMILETNITEDVSAHKENIRGLDKINEMLSTNLPVSLAPEKEDNEKKQQMIMENQNSENTAQVFARDLVNRLEEKKVLNETQQSQEKAKNRLNVQEETMKIRNNMEQLLQEAEHWSKQHTELSKLIKSYQKSQKDISETLGNNGVGFQTQPNNEVSAKHELEEQVKKLSHDTYSLQLMAALLENECQILQQRVEILKELHHQKQGTLQEKPIQINYKQDKKNQKPSEAKKVEMYKQNKQAMKGTFWKKDRSCRSLDVCLNKKACNTQFNIHVARKALRGKMRSASSLR
B8: SP100 (protein, UniProt P23497 2-879, looked up)
Nuclear autoantigen Sp-100: AGGGGDLSTRRLNECISPVANEMNHLPAHSHDLQRMFTEDQGVDDRLLYDIVFKHFKRNKVEISNAIKKTFPFLEGLRDRDLITNKMFEDSQDSCRNLVPVQRVVYNVLSELEKTFNLPVLEALFSDVNMQEYPDLIHIYKGFENVIHDKLPLQESEEEEREERSGLQLSLEQGTGENSFRSLTWPPSGSPSHAGTTPPENGLSEHPCETEQINAKRKDTTSDKDDSLGSQQTNEQCAQKAEPTESCEQIAVQVNNGDAGREMPCPLPCDEESPEAELHNHGIQINSCSVRLVDIKKEKPFSNSKVECQAQARTHHNQASDIIVISSEDSEGSTDVDEPLEVFISAPRSEPVINNDNPLESNDEKEGQEATCSRPQIVPEPMDFRKLSTFRESFKKRVIGQDHDFSESSEEEAPAEASSGALRSKHGEKAPMTSRSTSTWRIPSRKRRFSSSDFSDLSNGEELQETCSSSLRRGSGSQPQEPENKKCSCVMCFPKGVPRSQEARTESSQASDMMDTMDVENNSTLEKHSGKRRKKRRHRSKVNGLQRGRKKDRPRKHLTLNNKVQKKRWQQRGRKANTRPLKRRRKRGPRIPKDENINFKQSELPVTCGEVKGTLYKERFKQGTSKKCIQSEDKKWFTPREFEIEGDRGASKNWKLSIRCGGYTLKVLMENKFLPEPPSTRKKRILESHNNTLVDPCEEHKKKNPDASVKFSEFLKKCSETWKTIFAKEKGKFEDMAKADKAHYEREMKTYIPPKGEKKKKFKDPNAPKRPPLAFFLFCSEYRPKIKGEHPGLSIDDVVKKLAGMWNNTAAADKQFYEKKAAKLKEKYKKDIAAYRAKGKPNSAKKRVVKAEKSKKKKEEEEDEEDEQEEENEEDDDK
B9: SP6 (protein, UniProt Q3SY56 1-376, looked up)
Transcription factor Sp6: MLTAVCGSLGSQHTEAPHASPPRLDLQPLQTYQGHTSPEAGDYPSPLQPGELQSLPLGPEVDFSQGYELPGASSRVTCEDLESDSPLAPGPFSKLLQPDMSHHYESWFRPTHPGAEDGSWWDLHPGTSWMDLPHTQGALTSPGHPGALQAGLGGYVGDHQLCAPPPHPHAHHLLPAAGGQHLLGPPDGAKALEVAAPESQGLDSSLDGAARPKGSRRSVPRSSGQTVCRCPNCLEAERLGAPCGPDGGKKKHLHNCHIPGCGKAYAKTSHLKAHLRWHSGDRPFVCNWLFCGKRFTRSDELQRHLQTHTGTKKFPCAVCSRVFMRSDHLAKHMKTHEGAKEEAAGAASGEGKAGGAVEPPGGKGKREAEGSVAPSN
B10: SP110 (protein, UniProt Q9HB58 1-689, looked up)
Sp110 nuclear body protein: MFTMTRAMEEALFQHFMHQKLGIAYAIHKPFPFFEGLLDNSIITKRMYMESLEACRNLIPVSRVVHNILTQLERTFNLSLLVTLFSQINLREYPNLVTIYRSFKRVGASYEWQSRDTPILLEAPTGLAEGSSLHTPLALPPPQPPQPSCSPCAPRVSEPGTSSQQSDEILSESPSPSDPVLPLPALIQEGRSTSVTNDKLTSKMNAEEDSEEMPSLLTSTVQVASDNLIPQIRDKEDPQEMPHSPLGSMPEIRDNSPEPNDPEEPQEVSSTPSDKKGKKRKRCIWSTPKRRHKKKSLPGGTASSRHGIQKKLKRVDQVPQKKDDSTCNSTVETRAQKARTECARKSRSEEIIDGTSEMNEGKRSQKTPSTPRRVTQGAASPGHGIQEKLQVVDKVTQRKDDSTWNSEVMMRVQKARTKCARKSRLKEKKKEKDICSSSKRRFQKNIHRRGKPKSDTVDFHCSKLPVTCGEAKGILYKKKMKHGSSVKCIRNEDGTWLTPNEFEVEGKGRNAKNWKRNIRCEGMTLGELLKRKNSDECEVCCQGGQLLCCGTCPRVFHEDCHIPPVEAKRMLWSCTFCRMKRSSGSQQCHHVSKTLERQMQPQDQLIRDYGEPFQEAMWLDLVKERLITEMYTVAWFVRDMRLMFRNHKTFYKASDFGQVGLDLEAEFEKDLKDVLGFHEANDGGFWTLP
B11: STAT5B (protein, UniProt P51692 1-787, looked up)
Signal transducer and …: MAVWIQAQQLQGEALHQMQALYGQHFPIEVRHYLSQWIESQAWDSVDLDNPQENIKATQLLEGLVQELQKKAEHQVGEDGFLLKIKLGHYATQLQNTYDRCPMELVRCIRHILYNEQRLVREANNGSSPAGSLADAMSQKHLQINQTFEELRLVTQDTENELKKLQQTQEYFIIQYQESLRIQAQFGPLAQLSPQERLSRETALQQKQVSLEAWLQREAQTLQQYRVELAEKHQKTLQLLRKQQTIILDDELIQWKRRQQLAGNGGPPEGSLDVLQSWCEKLAEIIWQNRQQIRRAEHLCQQLPIPGPVEEMLAEVNATITDIISALVTSTFIIEKQPPQVLKTQTKFAATVRLLVGGKLNVHMNPPQVKATIISEQQAKSLLKNENTRNDYSGEILNNCCVMEYHQATGTLSAHFRNMSLKRIKRSDRRGAESVTEEKFTILFESQFSVGGNELVFQVKTLSLPVVVIVHGSQDNNATATVLWDNAFAEPGRVPFAVPDKVLWPQLCEALNMKFKAEVQSNRGLTKENLVFLAQKLFNNSSSHLEDYSGLSVSWSQFNRENLPGRNYTFWQWFDGVMEVLKKHLKPHWNDGAILGFVNKQQAHDLLINKPDGTFLLRFSDSEIGGITIAWKFDSQERMFWNLMPFTTRDFSIRSLADRLGDLNYLIYVFPDRPKDEVYSKYYTPVPCESATAKAVDGYVKPQIKQVVPEFVNASADAGGGSATYMDQAPSPAVCPQAHYNMYPQNPDSVLDTDGDFDLEDTMDVARRVEELLGRPMDSQWIPHAQS

System: HEK293FT cells transfected with TF library
Experiment: Screening of TF condensates based on fluorescent puncta
Assay type: cell-based
Details: Figure 1B numerical data; TF library screen, one value per transcriptional factor
In short: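 Condensate formation is scored as Alexa 488-labelled puncta after Flag- or GAL4-tag immunostaining of fixed HEK293FT cells expressing individual TFs, with a 12 h glucose-free or glucose-containing culture preceding fixation.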

Molecule	Z score of condensed fraction
B1	-0.331
B2	0.09353
B3	-1.033
B4	-0.6398
B5	0.2674
B6	-0.1184
B7	0.06851
B8	-0.9758
B9	2.974
B10	-0.422
B11	2.437
